Data on nine substances can be found in the supplement of paper PMC5998384.

Series [1] has as its system HeLa Kyoto. Nature of the series: solubility in G1/S (NP-40 vs SDS abundance) (log2 ratio); higher = more soluble. Particulars: cell cycle stage: G1/S.
Series [2] has as its system HeLa Kyoto. Nature of the series: solubility change mitosis vs G1/S (difference of NP-40 vs SDS log2 ratios) (log2 ratio difference); higher = more soluble in mitosis.
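For solubility change mitosis vs G1/S (difference of NP-40 vs SDS log2 ratios) in this document: synchronized HeLa Kyoto cells (double thymidine block for G1/S, nocodazole release for mitosis), protein amounts in NP-40 versus SDS lysates quantified by mass spectrometry, three biological replicates.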
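For solubility in G1/S (NP-40 vs SDS abundance) in this document: HeLa Kyoto cells arrested at G1/S by double thymidine block, proteins quantified by TMT10plex mass spectrometry in mild NP-40 versus SDS extracts, three biological replicates.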

“MAQRYDDLPHYGGMDGVGIPSTMYGDPHAARSMQPVHHLNHGPPLHSHQYPHTAHTNAMAPSMGSSVNDALKRDKDAIYGHPLFPLLALIFEKCELATCTPREPGVAGGDVCSSESFNEDIAVFAKQIRAEKPLFSSNPELDNLMIQAIQVLRFHLLELEKVHELCDNFCHRYISCLKGKMPIDLVIDDREGGSKSDSEDITRSANLTDQPSWNRDHDDTASTRSGGTPGPSSGGHTSHSGDNSSEQGDGLDNSVASPSTGDDDDPDKDKKRHKKRGIFPKVATNIMRAWLFQHLTHPYPSEEQKKQLAQDTGLTILQVNNWFINARRRIVQPMIDQSNRAVSQGTPYNPDGQPMGGFVMDGQQHMGIRAPGPMSGMGMNMGMEGQWHYM [MEIS1]”: the “solubility in G1/S (log2)” value with HeLa Kyoto [1] was 0.363. Further, the “solubility change mitosis (log2)” value in the series with HeLa Kyoto [2] was -0.208.
As for “MDPPAVVAESVSSLTIADAFIAAGESSAPTPPRPALPRRFICSFPDCSANYSKAWKLDAHLCKHTGERPFVCDYEGCGKAFIRDYHLSRHILTHTGEKPFVCAANGCDQKFNTKSNLKKHFERKHENQQKQYICSFEDCKKTFKKHQQLKIHQCQHTNEPLFKCTQEGCGKHFASPSKLKRHAKAHEGYVCQKGCSFVAKTWTELLKHVRETHKEEILCEVCRKTFKRKDYLKQHMKTHAPERDVCRCPREGCGRTYTTVFNLQSHILSFHEESRPFVCEHAGCGKTFAMKQSLTRHAVVHDPDKKKMKLKVKKSREKRSLASHLSGYIPPKRKQGQGLSLCQNGESPNCVEDKMLSTVAVLTLG [GTF3A]”, the “solubility in G1/S (log2)” value in the series with HeLa Kyoto [1] is -0.869. For the same substance, the “solubility change mitosis (log2)” value in the series on HeLa Kyoto [2] is 0.0516.
For “MPLRDKYCQTDHHHHGCCEPVYILEPGDPPLLQQPLQTSKSGIQQIIECFRSGTKQLKHILLKDVDTIFECKLCRSLFRGLPNLITHKKFYCPPSLQMDDNLPDVNDKQSQAINDLLEAIYPSVDKREYIIKLEPIETNQNAVFQYISRTDNPIEVTESSSTPEQTEVQIQETSTEQSKTVPVTDTEVETVEPPPVEIVTDEVAPTSDEQPQESQADLETSDNSDFGHQLICCLCRKEFNSRRGVRRHIRKVHKKKMEELKKYIETRKNPNQSSKGRSKNVLVPLSRSCPVCCKSFATKANVRRHFDEVHRGLRRDSITPDIATKPGQPLFLDSISPKKSFKTRKQKSSSKAEYNLTACKCLLCKRKYSSQIMLKRHMQIVHKITLSGTNSKREKGPNNTANSSEIKVKVEPADSVESSPPSITHSPQNELKGTNHSNEKKNTPAAQKNKVKQDSESPKSTSPSAAGGQQKTRKPKLSAGFDFKQLYCKLCKRQFTSKQNLTKHIELHTDGNNIYVKFYKCPLCTYETRRKRDVIRHITVVHKKSSRYLGKITASLEIRAIKKPIDFVLNKVAKRGPSRDEAKHSDSKHDGTSNSPSKKYEVADVGIEVKVTKNFSLHRCNKCGKAFAKKTYLEHHKKTHKANASNSPEGNKTKGRSTRSKALV [ZNF800]” the same measures were -3.34 and 1.43.
The matching figures for “MEFSIKQSPLSVQSVVKCIKMKQAPEILGSANGKTPSCEVNRECSVFLSKAQLSSSLQEGVMQKFNGHDALPFIPADKLKDLTSRVFNGEPGAHDAKLRFESQEMKGIGTPPNTTPIKNGSPEIKLKITKTYMNGKPLFESSICGDSAADVSQSEENGQKPENKARRNRKRSIKYDSLLEQGLVEAALVSKISSPSDKKIPAKKESCPNTGRDKDHLLKYNVGDLVWSKVSGYPWWPCMVSADPLLHSYTKLKGQKKSARQYHVQFFGDAPERAWIFEKSLVAFEGEGQFEKLCQESAKQAPTKAEKIKLLKPISGKLRAQWEMGIVQAEEAASMSVEERKAKFTFLYVGDQLHLNPQVAKEAGIAAESLGEMAESSGVSEEAAENPKSVREECIPMKRRRRAKLCSSAETLESHPDIGKSTPQKTAEADPRRGVGSPPGRKKTTVSMPRSRKGDAASQFLVFCQKHRDEVVAEHPDASGEEIEELLRSQWSLLSEKQRARYNTKFALVAPVQAEEDSGNVNGKKRNHTKRIQDPTEDAEAEDTPRKRLRTDKHSLRKRDTITDKTARTSSYKAMEAASSLKSQAATKNLSDACKPLKKRNRASTAASSALGFSKSSSPSASLTENEVSDSPGDEPSESPYESADETQTEVSVSSKKSERGVTAKKEYVCQLCEKPGSLLLCEGPCCGAFHLACLGLSRRPEGRFTCSECASGIHSCFVCKESKTDVKRCVVTQCGKFYHEACVKKYPLTVFESRGFRCPLHSCVSCHASNPSNPRPSKGKMMRCVRCPVAYHSGDACLAAGCSVIASNSIICTAHFTARKGKRHHAHVNVSWCFVCSKGGSLLCCESCPAAFHPDCLNIEMPDGSWFCNDCRAGKKLHFQDIIWVKLGNYRWWPAEVCHPKNVPPNIQKMKHEIGEFPVFFFGSKDYYWTHQARVFPYMEGDRGSRYQGVRGIGRVFKNALQEAEARFREIKLQREARETQESERKPPPYKHIKVNKPYGKVQIYTADISEIPKCNCKPTDENPCGFDSECLNRMLMFECHPQVCPAGEFCQNQCFTKRQYPETKIIKTDGKGWGLVAKRDIRKGEFVNEYVGELIDEEECMARIKHAHENDITHFYMLTIDKDRIIDAGPKGNYSRFMNHSCQPNCETLKWTVNGDTRVGLFAVCDIPAGTELTFNYNLDCLGNEKTVCRCGASNCSGFLGDRPKTSTTLSSEEKGKKTKKKTRRRRAKGEGKRQSEDECFRCGDGGQLVLCDRKFCTKAYHLSCLGLGKRPFGKWECPWHHCDVCGKPSTSFCHLCPNSFCKEHQDGTAFSCTPDGRSYCCEHDLGAASVRSTKTEKPPPEPGKPKGKRRRRRGWRRVTEGK [WHSC1]”: -1.29 and 0.535.
For “MHSSNPKVRSSPSGNTQSSPKSKQEVMVRPPTVMSPSGNPQLDSKFSNQGKQGGSASQSQPSPCDSKSGGHTPKALPGPGGSMGLKNGAGNGAKGKGKRERSISADSFDQRDPGTPNDDSDIKECNSADHIKSQDSQHTPHSMTPSNATAPRSSTPSHGQTTATEPTPAQKTPAKVVYVFSTEMANKAAEAVLKGQVETIVSFHIQNISNNKTERSTAPLNTQISALRNDPKPLPQQPPAPANQDQNSSQNTRLQPTPPIPAPAPKPAAPPRPLDRESPGVENKLIPSVGSPASSTPLPPDGTGPNSTPNNRAVTPVSQGSNSSSADPKAPPPPPVSSGEPPTLGENPDGLSQEQLEHRERSLQTLRDIQRMLFPDEKEFTGAQSGGPQQNPGVLDGPQKKPEGPIQAMMAQSQSLGKGPGPRTDVGAPFGPQGHRDVPFSPDEMVPPSMNSQSGTIGPDHLDHMTPEQIAWLKLQQEFYEEKRRKQEQVVVQQCSLQDMMVHQHGPRGVVRGPPPPYQMTPSEGWAPGGTEPFSDGINMPHSLPPRGMAPHPNMPGSQMRLPGFAGMINSEMEGPNVPNPASRPGLSGVSWPDDVPKIPDGRNFPPGQGIFSGPGRGERFPNPQGLSEEMFQQQLAEKQLGLPPGMAMEGIRPSMEMNRMIPGSQRHMEPGNNPIFPRIPVEGPLSPSRGDFPKGIPPQMGPGRELEFGMVPSGMKGDVNLNVNMGSNSQMIPQKMREAGAGPEEMLKLRPGGSDMLPAQQKMVPLPFGEHPQQEYGMGPRPFLPMSQGPGSNSGLRNLREPIGPDQRTNSRLSHMPPLPLNPSSNPTSLNTAPPVQRGLGRKPLDISVAGSQVHSPGINPLKSPTMHQVQSPMLGSPSGNLKSPQTPSQLAGMLAGPAAAASIKSPPVLGSAAASPVHLKSPSLPAPSPGWTSSPKPPLQSPGIPPNHKAPLTMASPAMLGNVESGGPPPPTASQPASVNIPGSLPSSTPYTMPPEPTLSQNPLSIMMSRMSKFAMPSSTPLYHDAIKTVASSDDDSPPARSPNLPSMNNMPGMGINTQNPRISGPNPVVPMPTLSPMGMTQPLSHSNQMPSPNAVGPNIPPHGVPMGPGLMSHNPIMGHGSQEPPMVPQGRMGFPQGFPPVQSPPQQVPFPHNGPSGGQGSFPGGMGFPGEGPLGRPSNLPQSSADAALCKPGGPGGPDSFTVLGNSMPSVFTDPDLQEVIRPGATGIPEFDLSRIIPSEKPSQTLQYFPRGEVPGRKQPQGPGPGFSHMQGMMGEQAPRMGLALPGMGGPGPVGTPDIPLGTAPSMPGHNPMRPPAFLQQGMMGPHHRMMSPAQSTMPGQPTLMSNPAAAVGMIPGKDRGPAGLYTHPGPVGSPGMMMSMQGMMGPQQNIMIPPQMRPRGMAADVGMGGFSQGPGNPGNMMF [BCL9]” the same measures were 0.308 and 0.0803.
WDFY3: in the series with HeLa Kyoto [1], the “solubility in G1/S (log2)” value was -0.364. Moreover, the “solubility change mitosis (log2)” value with HeLa Kyoto [2] amounted to 0.0228.
As for “MEDGVLKEGFLVKRGHIVHNWKARWFILRQNTLVYYKLEGGRRVTPPKGRILLDGCTITCPCLEYENRPLLIKLKTQTSTEYFLEACSREERDAWAFEITGAIHAGQPGKVQQLHSLRNSFKLPPHISLHRIVDKMHDSNTGIRSSPNMEQGSTYKKTFLGSSLVDWLISNSFTASRLEAVTLASMLMEENFLRPVGVRSMGAIRSGDLAEQFLDDSTALYTFAESYKKKISPKEEISLSTVELSGTVVKQGYLAKQGHKRKNWKVRRFVLRKDPAFLHYYDPSKEENRPVGGFSLRGSLVSALEDNGVPTGVKGNVQGNLFKVITKDDTHYYIQASSKAERAEWIEAIKKLT [PLEK2]”, the “solubility in G1/S (log2)” value in the series on HeLa Kyoto [1] is -0.00783. Also, in the series on HeLa Kyoto [2], the “solubility change mitosis (log2)” value was -0.0462.
The matching figures for “MSGTSKESLGHGGLPGLGKTCLTTMDTKLNMLNEKVDQLLHFQEDVTEKLQSMCRDMGHLERGLHRLEASRAPGPGGADGVPHIDTQAGWPEVLELVRAMQQDAAQHGARLEALFRMVAAVDRAIALVGATFQKSKVADFLMQGRVPWRRGSPGDSPEENKERVEEEGGKPKHVLSTSGVQSDAREPGEESQKADVLEGTAERLPPIRASGLGADPAQAVVSPGQGDGVPGPAQAFPGHLPLPTKVEAKAPETPSENLRTGLELAPAPGRVNVVSPSLEVAPGAGQGASSSRPDPEPLEEGTRLTPGPGPQCPGPPGLPAQARATHSGGETPPRISIHIQEMDTPGEMLMTGRGSLGPTLTTEAPAAAQPGKQGPPGTGRCLQAPGTEPGEQTPEGARELSPLQESSSPGGVKAEEEQRAGAEPGTRPSLARSDDNDHEVGALGLQQGKSPGAGNPEPEQDCAARAPVRAEAVRRMPPGAEAGSVVLDDSPAPPAPFEHRVVSVKETSISAGYEVCQHEVLGGGRFGQVHRCTEKSTGLPLAAKIIKVKSAKDREDVKNEINIMNQLSHVNLIQLYDAFESKHSCTLVMEYVDGGELFDRITDEKYHLTELDVVLFTRQICEGVHYLHQHYILHLDLKPENILCVNQTGHQIKIIDFGLARRYKPREKLKVNFGTPEFLAPEVVNYEFVSFPTDMWSVGVITYMLLSGLSPFLGETDAETMNFIVNCSWDFDADTFEGLSEEAKDFVSRLLVKEKSCRMSATQCLKHEWLNNLPAKASRSKTRLKSQLLLQKYIAQRKWKKHFYVVTAANRLRKFPTSP [MYLK3]”: -0.00349 and -0.0471.
For “MGDDRPFVCNAPGCGQRFTNEDHLAVHKHKHEMTLKFGPARTDSVIIADQTPTPTRFLKNCEEVGLFNELASSFEHEFKKAADEDEKKAAAGPLDMSLPSTPDIKIKEEEPVEVDSSPPDSPASSPCSPPLKEKEVTPKPVLISTPTPTIVRPGSLPLHLGYDPLHPTLPSPTSVITQAPPSNRQMGSPTGSLPLVMHLANGQTMPVLPGPPVQMPSVISLARPVSMVPNIPGIPGPPVNSSGSISPSGHPIPSEAKMRLKATLTHQVSSINGGCGMVVGTASTMVTARPEQSQILIQHPDAPSPAQPQVSPAQPTPSTGGRRRRTVDEDPDERRQRFLERNRAAASRCRQKRKLWVSSLEKKAEELTSQNIQLSNEVTLLRNEVAQLKQLLLAHKDCPVTALQKKTQGYLESPKESSEPTGSPAPVIQHSSATAPSNGLSVRSAAEAVATSVLTQMASQRTELSMPIQSHVIMTPQSQSAGR [ATF7]” the same measures were 0.504 and 0.0933.
